What all share (assay): EMSA; glutaraldehyde-fixed; ssDNA EMSA: 10 nM DNA, 50 mM potassium phosphate pH 6.0, 5 mM EDTA, 5% glycerol, 0.1 mg/ml BSA, 37°C, 40 min, then 0.1% glutaraldehyde; second-strand EMSA: 5 nM each strand, 20 mM Tris-HCl pH 7.5, 5 mM MgCl2, 1 mM DTT, 0.1 mg/ml BSA, 37°C
What all share (settings): protein: recombinant; tags: His6 removed; N-terminal GSH left; label: 5' Cy3

One series concerns the target T1, Redβ R149A (Bacteriophage λ (Enterobacteria phage λ), UniProt P03698 1-261, R149A).
T1 sequence: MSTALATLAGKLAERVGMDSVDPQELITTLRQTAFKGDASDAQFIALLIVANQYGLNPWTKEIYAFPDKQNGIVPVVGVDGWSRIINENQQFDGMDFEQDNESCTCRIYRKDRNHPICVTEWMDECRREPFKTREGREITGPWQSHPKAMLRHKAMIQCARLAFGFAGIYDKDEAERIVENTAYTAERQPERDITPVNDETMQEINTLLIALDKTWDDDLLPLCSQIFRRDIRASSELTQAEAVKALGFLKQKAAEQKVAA

The next series has as its target T2, Redβ R161A (Bacteriophage λ (Enterobacteria phage λ), UniProt P03698 1-261, R161A).
T2 sequence: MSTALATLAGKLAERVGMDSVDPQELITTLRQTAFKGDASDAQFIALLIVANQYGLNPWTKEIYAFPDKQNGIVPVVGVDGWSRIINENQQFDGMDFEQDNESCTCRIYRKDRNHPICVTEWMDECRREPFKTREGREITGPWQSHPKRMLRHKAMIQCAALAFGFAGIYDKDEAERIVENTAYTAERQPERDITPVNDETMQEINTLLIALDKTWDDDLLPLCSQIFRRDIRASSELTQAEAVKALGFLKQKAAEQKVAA

Another series has as its target T3, Redβ V79A (Bacteriophage λ (Enterobacteria phage λ), UniProt P03698 1-261, V79A).
T3 sequence: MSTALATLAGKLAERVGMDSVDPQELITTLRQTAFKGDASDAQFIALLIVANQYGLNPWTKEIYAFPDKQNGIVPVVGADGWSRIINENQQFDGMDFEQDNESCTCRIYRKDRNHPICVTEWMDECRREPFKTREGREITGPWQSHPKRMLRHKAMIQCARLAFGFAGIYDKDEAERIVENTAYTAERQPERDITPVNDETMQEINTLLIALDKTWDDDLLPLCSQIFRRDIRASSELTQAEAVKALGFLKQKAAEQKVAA

For a further series, the target named is T4, Redβ K172A (Bacteriophage λ (Enterobacteria phage λ), UniProt P03698 1-261, K172A).
T4 sequence: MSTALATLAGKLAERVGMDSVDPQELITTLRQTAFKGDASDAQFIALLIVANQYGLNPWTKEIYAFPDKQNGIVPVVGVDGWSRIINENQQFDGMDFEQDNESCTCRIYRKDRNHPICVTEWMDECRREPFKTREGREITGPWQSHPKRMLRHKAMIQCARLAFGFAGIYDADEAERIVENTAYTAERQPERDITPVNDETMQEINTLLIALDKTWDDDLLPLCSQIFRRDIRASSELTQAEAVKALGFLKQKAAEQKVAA

For another series, the target named is T5, Redβ D80A (Bacteriophage λ (Enterobacteria phage λ), UniProt P03698 1-261, D80A).
T5 sequence: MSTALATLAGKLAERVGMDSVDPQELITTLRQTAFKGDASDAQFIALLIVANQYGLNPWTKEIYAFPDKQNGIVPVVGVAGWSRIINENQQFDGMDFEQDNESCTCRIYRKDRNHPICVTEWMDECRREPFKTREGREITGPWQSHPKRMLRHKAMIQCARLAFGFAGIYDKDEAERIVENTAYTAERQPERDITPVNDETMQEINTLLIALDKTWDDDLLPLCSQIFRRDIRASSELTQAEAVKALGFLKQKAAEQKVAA

The next series concerns the target T6, Redβ G78A (Bacteriophage λ (Enterobacteria phage λ), UniProt P03698 1-261, G78A).
T6 sequence: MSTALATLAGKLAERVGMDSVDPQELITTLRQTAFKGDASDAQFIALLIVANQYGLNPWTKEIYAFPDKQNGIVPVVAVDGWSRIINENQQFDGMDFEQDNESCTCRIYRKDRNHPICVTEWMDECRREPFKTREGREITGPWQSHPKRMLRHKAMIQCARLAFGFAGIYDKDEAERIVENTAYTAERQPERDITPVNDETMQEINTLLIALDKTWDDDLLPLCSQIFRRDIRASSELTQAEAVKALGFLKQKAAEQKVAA

This passage reports binding signal results from PMC3823998, “Structural and Functional Characterization of the Redβ Recombinase from Bacteriophage λ” (PLoS ONE, 2013).

Take TGCGGATGGCTTAGAGCTTAATTGCTGAATCTGGTGCTGTAGCTCAACAT (ssDNA) [50-minus ssDNA]: the binding signal in the series with Redβ R149A is 44 % of WT binding at 3 µM protein; in the series with Redβ R161A, 11 % of WT binding at 3 µM protein; with Redβ V79A, 21 % of WT binding at 3 µM protein; with Redβ K172A, 76 % of WT binding at 3 µM protein; with Redβ D80A, 87 % of WT binding at 3 µM protein; with Redβ G78A, 33 % of WT binding at 3 µM protein.
